# Test results: paper PMC5059767
# Key:
# [1] = target: endogenous PKAC (HEK293T) (human (endogenous in HEK293T)) (UniProt P17612)
# [2] = target: mCherry-ARHGAP36; test: FLIM-FRET (Venus-YFP donor fluorescence lifetime) in MDCK cells; conditions: n≥4 each; mean±s.d.; donor alone (PKAC-YFP) est. 3.0 ns; parent: est. 2.4; read off a plot
# [3] = target: PKAC-YFP (mouse PKAC-Venus-YFP), in MDCK cells (UniProt P05132); test: as above; conditions: n≥4 each; mean±s.d.; donor alone (PKAC-YFP) est. 3.0 ns; parent: est. 2.4; read off a plot
# Sequence of ARHGAP36-N2 (118–194) (Q6ZRI8 149-225): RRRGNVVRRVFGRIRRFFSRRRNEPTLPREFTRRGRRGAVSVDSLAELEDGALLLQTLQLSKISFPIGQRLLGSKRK
reduction in mean FRET emission ratio of the PKA biosensor AKAR4-NES in HEK293T cells stimulated with Forskolin and IBMX [1] [%],Substance,further results
25.1,ARHGAP36-N2 (118–194) (from UniProt Q6ZRI8-2 118-194) (domain or fragment),
,"PKAC-YFP (mouse PKAC-Venus-YFP), in MDCK cells (from UniProt P05132) E127A; E170A; E230A",response [2]: 3 ns
25.7,mCherry-ARHGAP36 (natural protein),
,mCherry-ARHGAP36 R153D; R154D; V157D,response [3]: 3 ns
